Where a chain is given by its changes, count along the chain named. Names and notes keep the numbering of the source.
B1: OVP I115G (Fc fusion)
chain: ETFPPKYLHYDEETSHQLLCDKCPPGTYLKQHCTAKWKTVCAPCPDHYYTDSWHTSDECLYCSPVCKELQYVKQECNRTHNRVCECKEGRYLEGEFCLKHRSCPPGFGVVQAGTPERNTVCKRCPDGFFSNETSSKAPCRKHTNCSVFGLLLTQKGNATHDNICSGNSESTQK
notes: Tested as C-terminal Fc-linked dimer with FLAG tag, from HEK 293 EBNA cells; signal peptide 1-21 processed; not shown: human Fc domain of vector pAPEX-3.Fc; C-terminal FLAG tag
B2: OVP I115K (Fc fusion)
chain: B1 chain with G94K
notes: as for B1
B3: OVP I115M, F128I (Fc fusion)
chain: B1 chain with G94M, F107I
notes: Tested as C-terminal Fc-linked dimer with FLAG tag, from HEK 293 EBNA cells; signal peptide 1-21 processed; also called I115M plus: F128I; not shown: human Fc domain of vector pAPEX-3.Fc; C-terminal FLAG tag
B4: OVP I115M, F128L (Fc fusion)
chain: B1 chain with G94M, F107L
notes: Tested as C-terminal Fc-linked dimer with FLAG tag, from HEK 293 EBNA cells; signal peptide 1-21 processed; also called I115M plus: F128L; not shown: human Fc domain of vector pAPEX-3.Fc; C-terminal FLAG tag
B5: OVP I115M, F128S (Fc fusion)
chain: B1 chain with G94M, F107S
notes: Tested as C-terminal Fc-linked dimer with FLAG tag, from HEK 293 EBNA cells; signal peptide 1-21 processed; also called I115M plus: F128S; not shown: human Fc domain of vector pAPEX-3.Fc; C-terminal FLAG tag
B6: OVP I115M, R122G (Fc fusion)
chain: B1 chain with G94M, R101G
notes: Tested as C-terminal Fc-linked dimer with FLAG tag, from HEK 293 EBNA cells; signal peptide 1-21 processed; also called I115M plus: R122G; not shown: human Fc domain of vector pAPEX-3.Fc; C-terminal FLAG tag
B7: OVP I115N (Fc fusion)
chain: B1 chain with G94N
notes: as for B1
B8: OVP I115R (Fc fusion)
chain: B1 chain with G94R
notes: as for B1
B9: OVP I115T, K51R (Fc fusion)
chain: B1 chain with K30R, G94T
notes: as for B1
B10: OVP N102D (Fc fusion)
chain: B1 chain with N81D, G94I
notes: as for B1

Key:
RANKL [1] = target: T1, RANKL (human, UniProt O14788 140-317, limits assumed); assay: ELISA on coated RANKL, Fc-linked dimers; EC50 ratio to OPG(22-194).Fc wt; increase in binding (lower EC50)
T1 construct: also called Rank ligand
T1 sequence (looked up): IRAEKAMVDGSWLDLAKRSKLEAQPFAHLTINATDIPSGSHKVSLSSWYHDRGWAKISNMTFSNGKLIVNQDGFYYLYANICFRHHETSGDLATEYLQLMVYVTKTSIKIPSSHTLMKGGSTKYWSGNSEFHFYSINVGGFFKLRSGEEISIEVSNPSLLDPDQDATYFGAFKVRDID
Description: (§1) Purified mammalian-expressed OVP proteins are tested for binding to RANKL and TRAIL by ELISA. Wells are coated with RANKL at 5 μg/mL or TRAIL at 10 μg/mL in PBS O/N at 4° C., rinsed with PBS, blocked with 0.5% casein in PBS at room temp for 2 h, then rinsed again with PBS. Concentrations of OVPs to be tested are normalised to around 10 nM and then 50 μL applied to the antigen-coated wells in serial doubling dilutions over 6-7 wells for 1 h. […] All washes in between binding incubations are 3 times in PBS/0.05% Tween, then 3 times with PBS. Detection of bound OVPs is achieved with incubation of 50 μL anti-FLAG at […] for 20 min then 50 μL goat anti-mouse-peroxidase conjugate (BioRad) at 1:1500 for 20 min. TMB is used as enzyme substrate and then binding signal is measured at A_{450 nm}.

TRAIL [2] = target: T2, TRAIL (human, UniProt P50591 114-281); assay: ELISA on coated TRAIL, Fc-linked dimers; EC50 ratio to OPG(22-194).Fc wt; reduction in binding (higher EC50); # by extrapolation
T2 construct: also called TNF-related apoptosis inducing ligand; recombinant human TRAIL (R&D Systems)
T2 sequence (P50591 114-281 limits assumed): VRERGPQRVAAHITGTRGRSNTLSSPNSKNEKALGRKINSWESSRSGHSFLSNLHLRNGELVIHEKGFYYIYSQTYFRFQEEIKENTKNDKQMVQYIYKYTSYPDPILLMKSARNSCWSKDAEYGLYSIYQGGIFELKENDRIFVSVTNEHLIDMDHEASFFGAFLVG
Description: as §1

TRAIL [3] = target: T2, TRAIL; assay: ELISA on coated TRAIL, Fc-linked dimer
Description: as §1

RANKL [4] = target: T1, RANKL; assay: ELISA on coated RANKL, Fc-linked dimers; EC50 ratio to OPG(22-194).Fc wt; reduction in binding (higher EC50)
Description: as §1

RANKL [5] = target: T1, RANKL; assay: ELISA on coated RANKL, Fc-linked dimers; EC50 ratio to OPG(22-194).Fc wt; printed without parentheses
Description: as §1

TRAIL [6] = target: T2, TRAIL; assay: ELISA on coated TRAIL, Fc-linked dimers; EC50 ratio to OPG(22-194).Fc wt; reduction in binding (higher EC50)
Description: as §1

TRAIL [7] = target: T2, TRAIL; assay: ELISA on coated TRAIL, Fc-linked dimers; EC50 ratio to OPG(22-194).Fc wt; printed in parentheses (reduction in binding, higher EC50)
Description: as §1

RANKL fold change cf wt (RANKL [1]) [fold] | TRAIL fold change cf wt (TRAIL [2]) [fold] | RANKL fold change cf wt (RANKL [4]) [fold] | further results | Binder
2.1 | > 125 |  |  | B1
 |  | 60 | binding result (TRAIL [3]): no binding | B2
 | 250 | 2.1 |  | B3
1.2 | 250 |  |  | B4
 |  |  | RANKL fold change cf wt (RANKL [5]): 1 fold; TRAIL fold change cf wt (TRAIL [6]): 50 fold | B5
 |  |  | RANKL fold change cf wt (RANKL [5]): 1 fold; TRAIL fold change cf wt (TRAIL [6]): 12.5 fold | B6
 | 390 | 1.1 |  | B7
 | 50 | 2.3 |  | B8
 |  | 1.75 | TRAIL fold change cf wt (TRAIL [7]): 0.8 fold | B9
1.1 |  |  | TRAIL fold change cf wt (TRAIL [7]): 1 fold | B10

Reference: US20060189528A1 (EVOGENIX, published 2006)
